{"source": "paper PMC3842841", "about": "“VacA, the vacuolating cytotoxin of Helicobacter pylori, binds to multimerin 1 on human platelets” (Thrombosis Journal, 2013)", "binders": {"B1": {"name": "Glutathione S-transferase (GST)-fusion protein of multimerin 1 (291a.a. ~ 391a.a.) (domain or fragment)", "chain": "IHTNQAESHTAVGRGVAEQQQQQGCGDPEVMQKMTDQVNYQAMKLTLLQKKIDNISLTVNDVRNTYSSLEGKVSEDKSREFQSLLKGLKSKSINVLIRDIV", "notes": "multimerin 1 (MMRN1), residues 291-391; also called GST-MMRN1; GST-fusion protein of partial MMRN1 (291aa-391aa); source: bought: Abnova Corporation"}}, "molecular_target": "T1, VacA, the vacuolating cytotoxin of Helicobacter pylori (Helicobacter pylori ATCC49503, UniProt Q48245 34-854)", "T1 sequence": "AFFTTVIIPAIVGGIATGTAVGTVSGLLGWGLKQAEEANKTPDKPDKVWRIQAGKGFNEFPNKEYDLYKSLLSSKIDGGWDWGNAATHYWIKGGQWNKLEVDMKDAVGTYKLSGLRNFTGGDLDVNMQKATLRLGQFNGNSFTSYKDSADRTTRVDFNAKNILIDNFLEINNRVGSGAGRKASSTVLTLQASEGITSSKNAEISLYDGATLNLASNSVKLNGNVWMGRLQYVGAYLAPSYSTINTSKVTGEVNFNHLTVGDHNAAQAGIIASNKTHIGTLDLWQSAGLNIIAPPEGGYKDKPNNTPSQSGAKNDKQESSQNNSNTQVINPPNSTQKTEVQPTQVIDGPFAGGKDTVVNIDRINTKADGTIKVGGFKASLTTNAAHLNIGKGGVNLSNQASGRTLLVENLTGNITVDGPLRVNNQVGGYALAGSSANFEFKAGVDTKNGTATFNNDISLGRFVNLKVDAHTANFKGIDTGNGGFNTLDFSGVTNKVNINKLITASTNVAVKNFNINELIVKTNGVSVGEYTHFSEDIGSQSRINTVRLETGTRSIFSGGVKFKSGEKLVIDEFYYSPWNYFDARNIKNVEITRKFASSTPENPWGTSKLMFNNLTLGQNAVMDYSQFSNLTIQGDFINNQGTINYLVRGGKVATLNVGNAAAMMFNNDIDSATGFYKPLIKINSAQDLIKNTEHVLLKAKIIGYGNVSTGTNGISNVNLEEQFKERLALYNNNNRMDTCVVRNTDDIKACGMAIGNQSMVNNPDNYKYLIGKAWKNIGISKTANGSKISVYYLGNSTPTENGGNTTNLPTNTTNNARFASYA", "assay": "SPR; BIAcore X, 25°C; GST-MMRN1 amine-coupled to a CM5 chip; VacA in PBS with 1 mM Ca++ perfused at 20 μL/min; control surface subtracted", "details": "both partners purified", "data": [{"binder": "B1", "values": [{"measurement": "Kd", "value": 33, "unit": "nM"}]}]}
